The record followed here is publication PMC11480477, “STIC2 selectively binds ribosome-nascent chain complexes in the cotranslational sorting of Arabidopsis thylakoid proteins” (The EMBO Journal, 2024).

First the molecules themselves.
T1: Alb4C-His R399G (UniProt Q9FYL3 334-499, R399G)
T1 construct: Alb4, C-terminal region aa 334–499, in pET29b; source: E. coli Rosetta2 (DE3) or BL21 (DE3), purified (HisTrap HP); not shown: His tag, C-terminal, kept
T1 sequence (looked up): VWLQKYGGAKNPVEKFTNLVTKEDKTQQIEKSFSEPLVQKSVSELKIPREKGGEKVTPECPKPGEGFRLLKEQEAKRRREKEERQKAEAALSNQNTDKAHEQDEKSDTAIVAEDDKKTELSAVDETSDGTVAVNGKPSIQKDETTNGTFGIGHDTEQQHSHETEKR

T2: Alb4C-His F400G (UniProt Q9FYL3 334-499, F400G)
T2 construct: Alb4, C-terminal region aa 334–499, in pET29b; source: E. coli Rosetta2 (DE3) or BL21 (DE3), purified (HisTrap HP); not shown: His tag, C-terminal, kept
T2 sequence (looked up): T1 sequence (looked up) with G66R, F67G

T3: Alb4C-His E407G (UniProt Q9FYL3 334-499, E407G)
T3 construct: Alb4, C-terminal region aa 334–499, in pET29b; source: E. coli Rosetta2 (DE3) or BL21 (DE3), purified (HisTrap HP); not shown: His tag, C-terminal, kept
T3 sequence (looked up): T1 sequence (looked up) with G66R, E74G

T4: Alb4C-His R410G (UniProt Q9FYL3 334-499, R410G)
T4 construct: Alb4, C-terminal region aa 334–499, in pET29b; source: E. coli Rosetta2 (DE3) or BL21 (DE3), purified (HisTrap HP); not shown: His tag, C-terminal, kept
T4 sequence (looked up): T1 sequence (looked up) with G66R, R77G

T5: Alb4C-His (aa 334–499) (UniProt Q9FYL3 334-499)
T5 construct: Alb4, stromal C-terminal region aa 334–499, in pET29b; also called C-terminal region of Alb4; source: E. coli Rosetta2 (DE3) or BL21 (DE3), purified (HisTrap HP); not shown: His tag, C-terminal, kept
T5 sequence (looked up): T1 sequence (looked up) with G66R

T6: GST-STIC2 E112A (A. thaliana, UniProt O82230 49-182, E112A)
T6 construct: STIC2 of A. thaliana, mature protein aa 49–182, in pGEX4T3; source: E. coli Rosetta2 (DE3) or BL21 (DE3), purified (glutathione sepharose); not shown: GST, N-terminal, kept
T6 sequence (looked up): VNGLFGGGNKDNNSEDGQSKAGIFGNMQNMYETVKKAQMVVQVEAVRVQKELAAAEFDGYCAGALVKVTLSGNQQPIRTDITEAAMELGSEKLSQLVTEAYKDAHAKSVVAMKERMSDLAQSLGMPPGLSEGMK

T7: GST-STIC2 E131G (A. thaliana, UniProt O82230 49-182, E131G)
T7 construct: STIC2 of A. thaliana, mature protein aa 49–182, in pGEX4T3; The results speak only of E131; source: E. coli Rosetta2 (DE3) or BL21 (DE3), purified (glutathione sepharose); not shown: GST, N-terminal, kept
T7 sequence (looked up): T6 sequence (looked up) with A64E, E83G

T8: GST-STIC2 E112A K115A (A. thaliana, UniProt O82230 49-182, E112A | K115A)
T8 construct: STIC2 of A. thaliana, mature protein aa 49–182, in pGEX4T3; also called STIC2 E112A K115A double mutant; source: E. coli Rosetta2 (DE3) or BL21 (DE3), purified (glutathione sepharose); not shown: GST, N-terminal, kept
T8 sequence (looked up): T6 sequence (looked up) with K67A

B1: GST-STIC2 (natural protein, A. thaliana, UniProt O82230 49-182, looked up)
chain: T6 sequence (looked up) with A64E
notes: STIC2 of A. thaliana, mature protein aa 49–182, in pGEX4T3; also called pGEX4T3-GST-STIC2; source: E. coli Rosetta2 (DE3) or BL21 (DE3), purified (glutathione sepharose); not shown: GST, N-terminal, kept
B2: His-STIC2 (mature STIC2, aa 49–182) (natural protein, A. thaliana, UniProt O82230 49-182, looked up)
chain: T6 sequence (looked up) with A64E
notes: STIC2 of A. thaliana, mature protein aa 49–182 (transit peptide predicted with TargetP), in pET-Duet1; The N-terminal place of the tag is read from the printed name His-STIC2; also called recombinant mature His-STIC2; suppressor of tic40 protein 2; source: E. coli Rosetta2 (DE3) or BL21 (DE3), purified (HisTrap HP, native conditions); not shown: His tag, N-terminal, kept
B3: GST-STIC2 K115A (natural protein, A. thaliana, UniProt O82230 49-182, looked up)
chain: T6 sequence (looked up) with A64E, K67A
notes: STIC2 of A. thaliana, mature protein aa 49–182, in pGEX4T3; source: E. coli Rosetta2 (DE3) or BL21 (DE3), purified (glutathione sepharose); not shown: GST, N-terminal, kept
B4: Alb3 peptide aa 386–400 (15mer pepspot) (peptide, UniProt Q8LBP4 386-400, looked up)
peptide: GERFRQLKEQEKRSK
notes: largely Motif III; source: synthetic peptide, spot on a membrane (JPT Peptide Technologies)
B5: Alb4 peptide aa 394–408 (15mer pepspot) (peptide, UniProt Q9FYL3 394-408, looked up)
peptide: PKPGERFRLLKEQEA
notes: as for B4
B6: Alb3C-His (aa 350–462) (domain or fragment, UniProt Q8LBP4 350-462, looked up)
chain: VYLRKLGGAKPNMDENASKIISAGRAKRSIAQPDDAGERFRQLKEQEKRSKKNKAVAKDTVELVEESQSESEEGSDDEEEEAREGALASSTTSKPLPEVGQRRSKRSKRKRTV
notes: Alb3, stromal C-terminal region aa 350–462, in pET29b; also called C-terminal region of Alb3; source: E. coli Rosetta2 (DE3) or BL21 (DE3), purified (HisTrap HP); not shown: His tag, C-terminal, kept

Holding throughout (conditions): both partners purified
One assay addresses T1, Alb4C-His R399G. The experiment in a line: pull-down; 20 µg GST-STIC2 variants with 20 µg Alb4C-His variants in PBS, 120 µl, room temperature; glutathione sepharose; eluates by immunoblot, coelution quantified with ImageJ. A general note: A western blot detects proteins with antibodies after separation by electrophoresis.
The target of a further assay is T2, Alb4C-His F400G. The description is as above.
In the next assay the target is T3, Alb4C-His E407G. Described as above.
The next assay addresses T4, Alb4C-His R410G. The assay is described as above.
Assay [1] addresses T5, Alb4C-His (aa 334–499). The experiment in a line: ITC; His-STIC2 titrated (1.5 mM into 0.15 mM Alb3C-His or Alb3CΔIII-His; 1 mM into 0.1 mM Alb4C-His or Alb4CΔIII-His); 20 mM HEPES, 150 mM NaCl, pH 8.0, 25 °C; one-site binding model; two to five independent experiments. (In general: Isothermal titration calorimetry measures the heat released or taken up as one component is titrated into another.)

Assay [2] addresses T5, Alb4C-His (aa 334–499). As to the kind of experiment: pull-down; 20 µg GST-STIC2 variants with 20 µg Alb4C-His variants in PBS, 120 µl, room temperature; glutathione sepharose; eluates by immunoblot, coelution quantified with ImageJ.
Assay [3] deals with B2. As to the kind of experiment: peptide or protein array; pepspot membranes with 15mer peptides of Alb3 (aa 155–208, 282–462) and Alb4 (aa 139–192, 266–499); His-STIC2 5 µg/ml for 3 h at room temperature, TBST washes, detection with anti-His HRP conjugate.
A further assay has as its target T6, GST-STIC2 E112A. As to the kind of experiment: pull-down; 20 µg GST-STIC2 variants with 20 µg Alb3C-His in PBS with 160 mM NaCl, 120 µl, room temperature; glutathione sepharose; eluates by immunoblot, coelution quantified with ImageJ.
A further assay has as its target T7, GST-STIC2 E131G. The assay is described as above.
A further assay deals with T8, GST-STIC2 E112A K115A. Described as above.
In assay [4] the target is B2. The experiment in a line: ITC; His-STIC2 titrated (1.5 mM into 0.15 mM Alb3C-His or Alb3CΔIII-His; 1 mM into 0.1 mM Alb4C-His or Alb4CΔIII-His); 20 mM HEPES, 150 mM NaCl, pH 8.0, 25 °C; one-site binding model; two to five independent experiments.

A word on the Kd: it is the free concentration of one partner at which half of the binding sites on the other are occupied at equilibrium, for simple one-to-one binding. Read a high Kd as a looser complex.

Changes are numbered by the printed parent chain.

As to B1, the binding result with Alb4C-His R399G, in the assay with Alb4C-His F400G, with Alb4C-His E407G and with Alb4C-His R410G was “binds” throughout.

For the molecule B2, in the assay with Alb4C-His (aa 334–499) [1], the Kd amounted to 17 µM.

As to B3, the binding result in the assay with Alb4C-His (aa 334–499) [2] was “binds”.

With B4, the binding result in assay [3] is “binds”.

Take B5: in assay [3], the binding result was “binds”.

B6: the “percent reduction of binding against GST-STIC2” value was ~15% in the assay with GST-STIC2 E112A, ~80% with GST-STIC2 E131G and ~80% in the assay with GST-STIC2 E112A K115A. Also, in assay [4], the dissociation constant Kd amounted to 150 µM.
